Assay results from the supplement of paper PMC10219994.
± gives the standard deviation of the averaged measurements.

B1: library; a variant is named by its letters at N, in order (parent)
chain: GAGACCGCAACTGAAAAGTTGTGGNNNNNATAGTGAGTCGCTGCCTGCAAAGACACAACT

Variants of: B1
Experiment: ligation selection enrichment (abundance after / before one-round selection) (fold); higher = more template-directed ligation activity
Conditions: with T7Psub CACGGAUGCUAAUACGACUCACUAUA; MgCl2 25 mM; 42 °C; 4 h; pH 8.5
Experimental: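 Lib-N5 ligase ribozyme library: five randomized core nucleotides (including the GGA motif of N8-1) within the fixed N8-1 ribozyme flanks, transcribed by T7 RNA polymerase with a 5'-triphosphate. The library (0.75 uM) was reacted with substrate T7Psub (6 uM) in 50 mM EPPS pH 8.5 with 25 mM MgCl2 at 42 C for 4 h. Ligated products were PAGE-purified, reverse transcribed and MiSeq sequenced; enrichment = abundance after selection / abundance before selection, with two independent replicates. The full transcript is built from the printed template flanks.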

Variant	ligation selection enrichment
GAGACCGCAACTGAAAAGTTGTGGAAAACATAGTGAGTCGCTGCCTGCAAAGACACAACT [AAAAC]	0.17 ± 0.018
GAGACCGCAACTGAAAAGTTGTGGAAAAGATAGTGAGTCGCTGCCTGCAAAGACACAACT [AAAAG]	0.226 ± 0.025
GAGACCGCAACTGAAAAGTTGTGGAAAAAATAGTGAGTCGCTGCCTGCAAAGACACAACT [AAAAA]	0.191 ± 0.076
GAGACCGCAACTGAAAAGTTGTGGAAAATATAGTGAGTCGCTGCCTGCAAAGACACAACT [AAAAT]	0.461 ± 0.12
GAGACCGCAACTGAAAAGTTGTGGTAAGGATAGTGAGTCGCTGCCTGCAAAGACACAACT [TAAGG]	0.733 ± 0.15
GAGACCGCAACTGAAAAGTTGTGGTAAGTATAGTGAGTCGCTGCCTGCAAAGACACAACT [TAAGT]	0.0779 ± 0.028
GAGACCGCAACTGAAAAGTTGTGGTAAGCATAGTGAGTCGCTGCCTGCAAAGACACAACT [TAAGC]	0.165 ± 0.016
GAGACCGCAACTGAAAAGTTGTGGTAAGAATAGTGAGTCGCTGCCTGCAAAGACACAACT [TAAGA]	0.977 ± 0.16
GAGACCGCAACTGAAAAGTTGTGGCAAGAATAGTGAGTCGCTGCCTGCAAAGACACAACT [CAAGA]	0.182 ± 0.036
GAGACCGCAACTGAAAAGTTGTGGCAAGGATAGTGAGTCGCTGCCTGCAAAGACACAACT [CAAGG]	0.2 ± 0.024
GAGACCGCAACTGAAAAGTTGTGGCAAGCATAGTGAGTCGCTGCCTGCAAAGACACAACT [CAAGC]	0.137 ± 0.042
GAGACCGCAACTGAAAAGTTGTGGTAACAATAGTGAGTCGCTGCCTGCAAAGACACAACT [TAACA]	0.186 ± 0.043
GAGACCGCAACTGAAAAGTTGTGGTAACTATAGTGAGTCGCTGCCTGCAAAGACACAACT [TAACT]	0.925 ± 0.31
GAGACCGCAACTGAAAAGTTGTGGTAACCATAGTGAGTCGCTGCCTGCAAAGACACAACT [TAACC]	0.173 ± 0.011
GAGACCGCAACTGAAAAGTTGTGGTAACGATAGTGAGTCGCTGCCTGCAAAGACACAACT [TAACG]	0.8672 ± 0.0053
GAGACCGCAACTGAAAAGTTGTGGAAAGGATAGTGAGTCGCTGCCTGCAAAGACACAACT [AAAGG]	0.44 ± 0.026
GAGACCGCAACTGAAAAGTTGTGGAAAGAATAGTGAGTCGCTGCCTGCAAAGACACAACT [AAAGA]	0.256 ± 0.0097
GAGACCGCAACTGAAAAGTTGTGGAAAGCATAGTGAGTCGCTGCCTGCAAAGACACAACT [AAAGC]	0.199 ± 0.038
GAGACCGCAACTGAAAAGTTGTGGAAACAATAGTGAGTCGCTGCCTGCAAAGACACAACT [AAACA]	0.177 ± 0.013
GAGACCGCAACTGAAAAGTTGTGGAAACGATAGTGAGTCGCTGCCTGCAAAGACACAACT [AAACG]	0.742 ± 0.064
GAGACCGCAACTGAAAAGTTGTGGAAACCATAGTGAGTCGCTGCCTGCAAAGACACAACT [AAACC]	0.196 ± 0.0049
GAGACCGCAACTGAAAAGTTGTGGAAACTATAGTGAGTCGCTGCCTGCAAAGACACAACT [AAACT]	1.21 ± 0.29
GAGACCGCAACTGAAAAGTTGTGGCAACTATAGTGAGTCGCTGCCTGCAAAGACACAACT [CAACT]	0.615 ± 0.11

Variant	ligation selection enrichment
GAGACCGCAACTGAAAAGTTGTGGCAACCATAGTGAGTCGCTGCCTGCAAAGACACAACT [CAACC]	0.126 ± 0.0056
GAGACCGCAACTGAAAAGTTGTGGCAACAATAGTGAGTCGCTGCCTGCAAAGACACAACT [CAACA]	0.1345 ± 0.00036
GAGACCGCAACTGAAAAGTTGTGGCAACGATAGTGAGTCGCTGCCTGCAAAGACACAACT [CAACG]	0.449 ± 0.066
GAGACCGCAACTGAAAAGTTGTGGTAAAGATAGTGAGTCGCTGCCTGCAAAGACACAACT [TAAAG]	0.553 ± 0.13
GAGACCGCAACTGAAAAGTTGTGGTAAAAATAGTGAGTCGCTGCCTGCAAAGACACAACT [TAAAA]	0.145 ± 0.025
GAGACCGCAACTGAAAAGTTGTGGTAAATATAGTGAGTCGCTGCCTGCAAAGACACAACT [TAAAT]	0.784 ± 0.063
GAGACCGCAACTGAAAAGTTGTGGTAAACATAGTGAGTCGCTGCCTGCAAAGACACAACT [TAAAC]	0.176 ± 0.054
GAGACCGCAACTGAAAAGTTGTGGGAAACATAGTGAGTCGCTGCCTGCAAAGACACAACT [GAAAC]	0.146 ± 0.044
GAGACCGCAACTGAAAAGTTGTGGGAAAGATAGTGAGTCGCTGCCTGCAAAGACACAACT [GAAAG]	0.328 ± 0.021
GAGACCGCAACTGAAAAGTTGTGGGAAAAATAGTGAGTCGCTGCCTGCAAAGACACAACT [GAAAA]	0.135 ± 0.02
GAGACCGCAACTGAAAAGTTGTGGGAAATATAGTGAGTCGCTGCCTGCAAAGACACAACT [GAAAT]	0.55 ± 0.2
GAGACCGCAACTGAAAAGTTGTGGGAACGATAGTGAGTCGCTGCCTGCAAAGACACAACT [GAACG]	0.626 ± 0.017
GAGACCGCAACTGAAAAGTTGTGGGAACTATAGTGAGTCGCTGCCTGCAAAGACACAACT [GAACT]	0.882 ± 0.31
GAGACCGCAACTGAAAAGTTGTGGGAACAATAGTGAGTCGCTGCCTGCAAAGACACAACT [GAACA]	0.191 ± 0.024
GAGACCGCAACTGAAAAGTTGTGGGAACCATAGTGAGTCGCTGCCTGCAAAGACACAACT [GAACC]	0.225 ± 0.032
GAGACCGCAACTGAAAAGTTGTGGCAAAAATAGTGAGTCGCTGCCTGCAAAGACACAACT [CAAAA]	0.131 ± 0.011
GAGACCGCAACTGAAAAGTTGTGGCAAACATAGTGAGTCGCTGCCTGCAAAGACACAACT [CAAAC]	0.135 ± 0.028
GAGACCGCAACTGAAAAGTTGTGGCAAATATAGTGAGTCGCTGCCTGCAAAGACACAACT [CAAAT]	0.595 ± 0.18
GAGACCGCAACTGAAAAGTTGTGGCAAAGATAGTGAGTCGCTGCCTGCAAAGACACAACT [CAAAG]	0.162 ± 0.03
GAGACCGCAACTGAAAAGTTGTGGGAAGAATAGTGAGTCGCTGCCTGCAAAGACACAACT [GAAGA]	0.306 ± 0.024
GAGACCGCAACTGAAAAGTTGTGGGAAGGATAGTGAGTCGCTGCCTGCAAAGACACAACT [GAAGG]	0.571 ± 0.21
GAGACCGCAACTGAAAAGTTGTGGGAAGCATAGTGAGTCGCTGCCTGCAAAGACACAACT [GAAGC]	0.167 ± 0.033
